Test results reported in PMC9600000.

Biological target: recombinant human prolidase with N-terminal His-Tag (human) (UniProt P12955)
Assay: SEC; Superdex 200 gel filtration in 150 mM NaCl, 25 mM Tris-HCl pH 7.5, 1 mM TCEP-HCl; mass by a commercial standard (Bio-Rad)

stoichiometry N: 2
Substance: recombinant human prolidase with N-terminal His-Tag (from UniProt P12955 1-493) (enzyme)
